In assay [1] the target is T1, Loop-KLK4 synthetic cyclized peptide (CGLHSLEADQEPGSCC) (human, bridge (positions not given here); also: cyclized, chemistry not given here).
T1 construct: The peptide was coupled to KLH for immunization and to BSA for the ELISA tests of sera; no carrier is stated there; also called Loop3-KLK4; KLK4-Loop3
T1 peptide: CGLHSLEADQEPGSCC
Kind of assay: ELISA, plate coated with Loop-KLK4 peptide; target: Loop3-KLK4 peptide. The procedure: (§1) ELISA binding assay: A ninety-six-well plate (Nunc) was coated with KLK4 and Loop-KLK4 at 10 µg/ml. After blocking with 2% BSA in PBS, the plate was incubated with the antibodies for 1 h at 37° C. Bound antibodies were detected by peroxidase-conjugated antibody goat anti-human (Jackson ImmunoResearch). EC₅₀ was calculated with GraphPad Prism from […] curve fitting analysis.
(§2) Interaction of KLK4 monoclonal antibody was tested by ELISA using KLK4 & KLK4-Loop3. As a control, anti-GST monoclonal antibody was used.

For a further assay, the target named is T2, recombinant human KLK4 (human, UniProt Q9Y5K2 31-253).
T2 construct: also called Kallikrein-4; Full KLK4
T2 sequence (Q9Y5K2 31-253 H197Q limits assumed): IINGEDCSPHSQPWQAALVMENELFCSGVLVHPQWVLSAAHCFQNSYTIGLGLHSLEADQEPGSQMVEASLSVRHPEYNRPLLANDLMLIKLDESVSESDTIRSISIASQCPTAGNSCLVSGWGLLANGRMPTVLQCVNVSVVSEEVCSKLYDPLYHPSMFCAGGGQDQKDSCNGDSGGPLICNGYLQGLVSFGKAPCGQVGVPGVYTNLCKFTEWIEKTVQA
Kind of assay: ELISA, plate coated with KLK4; target: full KLK4. As for the experimental part: as §1, §2

One molecule from patent US20250206846A1 (YEDA RESEARCH AND DEVELOPMENT, published 2025) can be followed below.

Where no end group is shown, it is not given here.

B1: anti-KLK4 monoclonal antibody (antibody, IgG1, V domains shown)
VH: EVQLVESGGGLVQPKGSLKLSCAASGFTFKTYAMTWVRQTPGKGLEWVARIRNKNNNYATFYADSVKDRFTISRDDSQSMLYLLMNNLKTEDTAIYYCVRVNYWYFDVWGAGTTVTVSS
VL: EIVMTQSTAIMSASPGEKVTMTCRASSSVSSTYLHWYQQKSGASPKLWIYSTSNLASGVPARFSGSGSGTSYSLTVSSVEAEDAATYYCQQYSSYPLTFGGGTKLEIK
notes: Monoclonal antibody from a hybridoma of immunized balb-c mice; also called anti-KLK4 antibody
Turning to B1, the EC50 came out at 0.271 nM in assay [1] and 0.272 nM with recombinant human KLK4.
